Results taken from patent publication US11793905B2, “Dressing” (University of Birmingham, priority 2015, dated 2023).

Tested on: MFs
Test: Sirius red assay of collagen deposition from MFs under decorin-containing gellan membranes
Format: cell-based
Conditions: MFs with TGF-β1 added to produce excess collagen; 12 day period; Sirius red dye read at 550 nm; compared to non-treated samples
Method: FIG. 4—MFs were cultured in 6-well plates and left to attach overnight. After overnight attachment TGF-β1 was added to the cells to produces excess collagen. Decorin containing membranes were placed on top of the cultures and collagen production was observed using the Sirius Red assay over time.
FIG. 5: For quantifying the amount of Sirius red dye bound to collagen in the cultures the Sirius red was dissolved with 0.1N sodium hydroxide and left on a shaker for 30 min at room temperature. The dissolved dye was measured colourimetrically using a plate reader at 550 nm

B1: decorin (protein, UniProt P07585 31-359, looked up)
Decorin: DEASGIGPEVPDDRDFEPSLGPVCPFRCQCHLRVVQCSDLGLDKVPKDLPPDTTLLDLQNNKITEIKDGDFKNLKNLHALILVNNKISKVSPGAFTPLVKLERLYLSKNQLKELPEKMPKTLQELRAHENEITKVRKVTFNGLNQMIVIELGTNPLKSSGIENGAFQGMKKLSYIRIADTNITSIPQGLPPSLTELHLDGNKISRVDAASLKGLNNLAKLGLSFNSISAVDNGSLANTPHLRELHLDNNKLTRVPGGLAEHKYIQVVYLHNNNISVVGSSDFCPPGHNTKKASYSGVSLFSNPVQYWEIQPSTFRCVYVRSAIQLGNYK
notes: secreted 45 kDA proteoglycan with a core protein comprising primarily leucine-rich repeats; antifibrotic agent
  amount of collagen deposited: significantly reduces the amount of collagen deposited
